Biological target: the molecule itself
Test: SDS-PAGE and anti-6xHis immunoblot of Ni-affinity elution fractions

B1: 6xHis tagged PdhR (natural protein)
chain: MAYSKIRQPKLSDVIEQQLEFLILEGTLRPGEKLPPERELAKQFDVSRPSLREAIQRLEAKGLLLRRQGGGTFVQSSLWQSFSDPLVELLSDHPESQYDLLETRHALEGIAAYYAALRSTDEDKERIRELHHAIELAQQSGDLDAESNAVLQYQIAVTEAAHNVVLLHLLRCMEPMLAQNVRQNFELLYSRREMLPLVSSHRTRIFEAIMAGKPEEAREASHRHLAFIEEILLDRSREESRRERSLRRLEQRKN
notes: also called PdhR-his; recombinant PdhR-his; source: E. coli BL21 DE3 (pET21a(+)), purified (Ni2+ chelating column, HisTrap)
  stoichiometry N: 2
